{
  "source": "paper PMC10491200",
  "about": "(bioRxiv, 2023)",
  "biological_target": "the molecule itself",
  "experiment": "cryo-EM structure",
  "data": [
    {"protein": "human mGlu5 (21-872), metabotropic glutamate receptor subtype 5, in MSP2N2 lipid nanodisc (receptor) QSSERRVVAHMPGDIIIGALFSVHHQPTVDKVHERKCGAVREQYGIQRVEAMLHTLERINSDPTLLPNITLGCEIRDSCWHSAVALEQSIEFIRDSLISSEEEEGLVRCVDGSSSSFRSKKPIVGVIGPGSSSVAIQVQNLLQLFNIPQIAYSATSMDLSDKTLFKYFMRVVPSDAQQARAMVDIVKRYNWTYVSAVHTEGNYGESGMEAFKDMSAKEGICIAHSYKIYSNAGEQSFDKLLKKLTSHLPKARVVACFCEGMTVRGLLMAMRRLGLAGEFLLLGSDGWADRYDVTDGYQREAVGGITIKLQSPDVKWFDDYYLKLRPETNHRNPWFQEFWQHRFQCRLEGFPQENSKYNKTCNSSLTLKTHHVQDSKMGFVINAIYSMAYGLHNMQMSLCPGYAGLCDAMKPIDGRKLLESLMKTNFTGVSGDTILFDENGDSPGRYEIMNFKEMGKDYFDYINVGSWDNGELKMDDDEVWSKKSNIIRSVCSEPCEKGQIKVIRKGEVSCCWTCTPCKENEYVFDEYTCKACQLGSWPTDDLTGCDLIPVQYLRWGDPEPIAAVVFACLGLLATLFVTVVFIIYRDTPVVKSSSRELCYIILAGICLGYLCTFCLIAKPKQIYCYLQRIGIGLSPAMSYSALVTKTNRIARILAGSKKKICTKKPRFMSACAQLVIAFILICIQLGIIVALFIMEPPDIMHDYPSIREVYLICNTTNLGVVTPLGYNGLLILSCTFYAFKTRNVPANFNEAKYIAFTMYTTCIIWLAFVPIYFGSNYKIITMCFSVSLSATVALGCMFVPKVYIILAKPERNVRSAFTTSTVVRMHVGDGKSSSAASRSSSLVNLWKRRGSS", "values": [
      {"measurement": "binding result", "result": "binds"}
    ]}
  ]
}
